Assay results published in patent US20070265189A1 (published 2007).

How the values were obtained:
[1] = target: T1, soluble HIR ectodomain (sIR) (human, UniProt P06213 28-956, limits assumed); experiment: FP on sIR, competitor FITC-RP9
T1 construct: extracellular domain
Source text: Fluorescence polarization assays (FP) were used for peptide competition studies.

[2] = target: T2, soluble human insulin receptor-immunoglobulin heavy chain chimera (sIR-Fc) (human, UniProt P06213 28-956, limits assumed, Eu3+ (LANCE) label in the TR-FRET assays); experiment: TR-FRET on Eu-sIR-Fc, competitor b-S175
T2 construct: extracellular domain; Construct of Bass et al., 1996; also called HIR-immunoglobulin heavy chain chimera; not shown: immunoglobulin heavy chain constant domains
Method: (§1) The TR-FRET assays were performed in a 384-well white microplate with a final volume of 30 μl.

[3] = target: T3, human insulin receptor (HIR) (human, UniProt P06213 28-1382, limits assumed); experiment: competition with 125I-insulin, solubilised HIR
[4] = target: T4, Soluble IGF-1R (R&D Systems, Cat. # 391-GR/CF) (UniProt P08069 31-935, limits assumed); experiment: phage ELISA: IGF-1R ratio over background divided by IR ratio over background
T4 construct: extracellular domain; also called sIGF-1R; IGFR

[5] = target: T5, Insulin receptor prepared according to Bass et al., 1996 (human, UniProt P06213 28-956, limits assumed); experiment: phage ELISA: IR ratio over background divided by IGF-1R ratio over background
T5 construct: extracellular domain; also called IR; soluble IR (Bass construct); not shown: immunoglobulin constant domains (Fc or lambda) of the Bass construct

[6] = target: T4, Soluble IGF-1R (R&D Systems, Cat. # …)
[7] = target: T5, Insulin receptor prepared according to …
[8] = target: T3, human insulin receptor (HIR); experiment: radio-receptor assay on HIR, competitor 125I-insulin
[9] = target: T2, soluble human insulin …; experiment: TR-FRET on Eu-sIR-Fc, competitor b-RP9
Method: Time-resolved fluorescence resonance energy transfer assays (TR-FRET) were used for peptide competition studies.
as §1

[10] = target: T2, soluble human insulin …; experiment: FP on sIR-Fc, competitor FITC-RP9
[11] = target: T6, human insulin receptor (HIR) (human, UniProt P06213 28-1382, limits assumed); experiment: 125I-insulin displacement, purified HIR
T6 construct: solubilised receptor

[12] = target: T7, soluble human insulin receptor-immunoglobulin heavy chain chimera (sIR-Fc) (human, UniProt P06213 28-956, limits assumed); experiment: fluorescence polarization; competitor against 1 nM FITC-RP9 on sIR-Fc
T7 construct: extracellular domain; Construct of Bass et al., 1996; not shown: immunoglobulin heavy chain constant domains

[13] = target: T8, recombinant human IGF-1R (rhIGF-1R) (human, UniProt P08069 31-935); experiment: TR-FRET; competitor against 15 nM b-20E2 on Eu-labeled rhIGF-1R
T8 construct: extracellular domain; Coated on plates in the DELFIA assay and Eu3+ (LANCE) labeled in the TR-FRET assays

B1: S380 (peptide)
peptide 1: EEDWLQRNANFYDWFVAELX
peptide 2: EEDWLQRNANFYDWFVAELX
modifications: C-terminal Lig′ joined to chemical linker 9
notes: C-C dimer through chemical linker 9; also called (EE-short-S175-Lig)2-9
- IC50 [1]: 0.5 nM
- IC50 [2]: 10 nM

B2: S596 (peptide)
peptide: SLEEEWAQIQHELYGPAESESFYDWFERQL
- Kd [3]: 0.045 nM

B3: S555 (peptide)
peptide: SLEEEWAQVECEVYGRGCPSESFYDWFVRQLG
- Kd [3]: 0.057 nM

B4: 40F-4-D1-IGFR (peptide)
peptide: DYKDLSCLAYSRHGIWRPSTDLGLGRSVGEGSVSTRWRGYDWFEAAAGAP
notes: not shown: rest of the phage display fusion (remainder of E-Tag, phage coat protein)
- Comparison IGF-1R/IR [4]: 13.1 ratio
- Comparison IR/IGF-1R [5]: 0.1 ratio
- Ratio over Background, IGF-1R [6]: 4.6 ratio over background
- Ratio over Background, IR [7]: 0.3 ratio over background

B5: S481 (peptide)
peptide: HHHHHHKLDQEWAWVQCEVYGRGCPSESFYDWFERQLG
- Kd [3]: 1.3 nM

B6: H2C (peptide)
peptide: FHENFYDWFVRQVSKK
notes: also called D117
- IC50 [1]: 37 nM
- IC50 [8]: 700 nM
- IC50 [2]: 410 nM
- IC50 [9]: 1630 nM
- IC50 [10]: 50 nM

B7: S542 (peptide)
peptide: SLEEEWAQVECEVYGRGCPSGSLDESFYHWFERQLG
- Kd [3]: 0.027 nM

B8: S550 (peptide)
peptide: GSLDESFYDWFERQLGXK
modifications: as printed: Ac-GSLDESFYDWFERQLG-POX-K; N-terminal acetyl; POX between G and the C-terminal K
notes: POX is not explained
- Kd [3]: 40 nM

B9: S593 (peptide)
peptide: SIEEEWAQIKCDVWGRGCPSY
- Kd [3]: 2.2 nM

B10: S414 (peptide)
peptide 1: ESFYDWFERQLGKX
peptide 2: ESFYDWFERQLGKX
modifications: C-terminal Lig′ joined to chemical linker 14
notes: Lig′ = lysine with a 2-aminohydroxyacetyl group on the side chain amino group; also called (truncated(-GSLD)RP9(-KK))2-14
- IC50 [1]: 0.2 nM

B11: S337 (peptide)
peptide 1: GSLDESFYDWFERQLGKKX
peptide 2: GSLDESFYDWFERQLGKKX
modifications: C-terminal Lig′ joined to chemical linker 23
notes: C-C dimer through chemical linker 23; also called (RP9-Lig)2-23
- IC50 [1]: 0.2 nM
- IC50 [2]: 0.2 nM
- IC50 [10]: 1 nM

B12: S327 (peptide)
peptide: TFYSCLASLLTGTPQPNRGPWERCRKK
- Kd [11]: 2700 nM

B13: S300 (peptide)
peptide 1: DWLQRNANFYDWFVAELX
peptide 2: DWLQRNANFYDWFVAELX
modifications: C-terminal Lig′ joined to linker 14
notes: dimer, C-C
- Kd [11]: 50 nM

B14: S560 (peptide)
peptide: SLEEEWAQIECEVWGRGCPSGSLDESFYDWFERQL
- Kd [3]: 0.014 nM

B15: S229 (peptide)
peptide 1: SDGFYNAIELLSX
peptide 2: KHLCVLEELFWGASLFGYCSGKKX
modifications: C-terminal Lig joined to linker 12
notes: heterodimer F2-F4, C-C
- Kd [11]: 4.4 nM

B16: S509 (peptide)
peptide: LDQEWAWVQSEVYGRGSPSESFYDWFERQL
- Kd [3]: 5.7 nM

B17: 40F-4-B1-IGFR (peptide)
peptide: DYKDGLDHSDAVGVHLGFAWPAQARGRWEAGGLEDTWAGYDWLAAAGAP
notes: as for B4
- Comparison IGF-1R/IR [4]: 13.1 ratio
- Comparison IR/IGF-1R [5]: 0.1 ratio
- Ratio over Background, IGF-1R [6]: 3 ratio over background
- Ratio over Background, IR [7]: 0.2 ratio over background

B18: S561 (peptide)
peptide: SLEEEWAQIECEVWGRGCSGSLDESFYDWFERQL
- Kd [3]: 0.018 nM

B19: H2C (D117) (peptide)
peptide: FHENFYDWFVRQVSKK
- IC50 [12]: 66 nM
- IC50 [13]: 460 nM

B20: S517 (peptide)
peptide: SIEEEWAQIKCDVWGRGCPSESFYDWFERQL
- Kd [3]: 0.006 nM

B21: S595 (peptide)
peptide: LEEEWAQIQREVWHSPASESFYDWFERQL
- Kd [3]: 0.62 nM
